Drawing on the supplement of paper PMC10724198, this text covers protein stability index for 67 sequences.

The test system of this data set is Saccharomyces cerevisiae. Briefly: protein stability index of tFT-peptide fusion (C-terminal peptide) (PSI (0-1 scale)); higher = more stable (slower turnover). The settings on record: temperature: 30 C. How it is done:
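MPS profiling in S. cerevisiae of the yeast C-terminome library: the last 12 aa of each annotated ORF are fused to the C-terminus of a sfGFP-mCherry timer, after a GGGS linker. Cells are FACS-sorted into 8 mCherry/sfGFP bins and deep-sequenced. PSI runs from 0 (unstable) to 1 (stable); wild type and das1Δ backgrounds, two technical replicates each.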

Where [1] appears, read: genetic background: das1 deletion.

± gives the standard deviation of the averaged measurements.

Turning to FKQKYDADVLDK [RPL11A C-terminal 12 aa], the protein stability index is 0.6902 ± 0.0043 under setting [1] and 0.735 ± 0.047 (genetic background: wild type).
FLPINVNDVPST [RGD3 C-terminal 12 aa]: the protein stability index reads like this: under setting [1], 0.716 ± 0.0089; (genetic background: wild type) 0.708 ± 0.069.
In the same order, the values of “FLWEMFELKLYL [YMR119W-A C-terminal 12 aa]” are 0.7071 ± 0.0016 and 0.71 ± 0.036.
For FMKELEMSEESD [RAD4 C-terminal 12 aa] the same measures were 0.693 ± 0.015 and 0.738 ± 0.028.
Take FQSEYNISDILS [CEP3 C-terminal 12 aa]: the protein stability index was found to be 0.703 ± 0.0092 under setting [1] and 0.745 ± 0.023 (genetic background: wild type).
On to FRHNRSNKKSGC [GEX2 C-terminal 12 aa], for which the protein stability index is 0.707 ± 0.032 under setting [1] and 0.668 ± 0.069 (genetic background: wild type).
In the case of FSAGNYKLPPGI [KTR3 C-terminal 12 aa], the protein stability index came out at 0.68 ± 0.011 under setting [1] and 0.7009 ± 0.0015 (genetic background: wild type).
Turning to FSFSIFFFFCLA [YFR035C C-terminal 12 aa], the protein stability index reads like this: under setting [1], 0.291 ± 0.017; (genetic background: wild type) 0.285 ± 0.0066.
In the same order, the values of FSFTEEPRIVMI [DCD1 C-terminal 12 aa] are 0.689 ± 0.02 and 0.699 ± 0.03.
Consider FSNAGVEMQIRK [GNA1 C-terminal 12 aa], for which the protein stability index reads like this: under setting [1], 0.702 ± 0.0064; (genetic background: wild type) 0.736 ± 0.04.
Consider FSSEYLLVHVQQ [YLR458W C-terminal 12 aa], for which the protein stability index is, setting by setting: under setting [1], 0.662 ± 0.011; (genetic background: wild type) 0.654 ± 0.036.
Regarding FSSSVMIIMKAS [NFT1 C-terminal 12 aa], the protein stability index is, setting by setting: under setting [1], 0.5186 ± 0.0012; (genetic background: wild type) 0.115 ± 0.0065.
In the case of “FTFGTPIFLQLL [YFR010W-A C-terminal 12 aa]”, the protein stability index worked out at 0.653 ± 0.025 under setting [1] and 0.579 ± 0.1 (genetic background: wild type).
As for FTFIIIQLFPAL [USE1 C-terminal 12 aa], the protein stability index was determined as 0.351 ± 0.016 under setting [1] and 0.385 ± 0.015 (genetic background: wild type).
Take FTLVGYDKEFSD [ADH6 C-terminal 12 aa]: the protein stability index reads like this: under setting [1], 0.6911 ± 0.0014; (genetic background: wild type) 0.70114 ± 0.00043.
Sequence FVDDNTPLEHVC [YDL086W C-terminal 12 aa] returned a protein stability index under setting [1] of 0.706 ± 0.011 and a protein stability index (genetic background: wild type) of 0.7331 ± 0.0011.
Regarding FVDYKTHPVGAN [RGI1 C-terminal 12 aa], the protein stability index worked out at 0.709 ± 0.01 under setting [1] and 0.7141 ± 0.0028 (genetic background: wild type).
In the same order, the values of FVFALSYPYEEI [ALG2 C-terminal 12 aa] are 0.713 ± 0.011 and 0.693 ± 0.038.
Consider FVKPGEICLREQ [RDH54 C-terminal 12 aa], for which the protein stability index amounted to 0.712 ± 0.039 under setting [1] and 0.701 ± 0.014 (genetic background: wild type).
Regarding FVNNKGNFKDLK [ARG3 C-terminal 12 aa], the protein stability index turned out to be 0.722 ± 0.025 under setting [1] and 0.686 ± 0.025 (genetic background: wild type).
Regarding FWFLFPLRLPGG [IRC16 C-terminal 12 aa], the protein stability index is, setting by setting: under setting [1], 0.5766 ± 0.0015; (genetic background: wild type) 0.5685 ± 0.0012.
As to FWNCVDGHLKYD [INM1 C-terminal 12 aa], the protein stability index by setting is: under setting [1], 0.724 ± 0.0075; (genetic background: wild type) 0.715 ± 0.043.
Take FWTINDDYGFLT [YLR278C C-terminal 12 aa]: the protein stability index by setting is: under setting [1], 0.757 ± 0.029; (genetic background: wild type) 0.77104 ± 0.00063.
In the same order, the values of GAAIAGAAAMLL [TIR3 C-terminal 12 aa] are 0.718 ± 0.014 and 0.713 ± 0.022.
For the sequence GAGVMAAAAMLL [TIR2 C-terminal 12 aa], the protein stability index is, setting by setting: under setting [1], 0.714 ± 0.029; (genetic background: wild type) 0.7089 ± 0.0066.
For GALERKLHIDEN [MAM1 C-terminal 12 aa] the same measures were 0.6947 ± 0.0045 and 0.692 ± 0.046.
Regarding GAVYFFSKARKA [COX26 C-terminal 12 aa], the protein stability index was 0.7207 ± 0.0023 under setting [1] and 0.654 ± 0.037 (genetic background: wild type).
As for GCVRSMLRDLQR [GCR2 C-terminal 12 aa], the protein stability index stood at 0.6733 ± 0.0057 under setting [1] and 0.686 ± 0.01 (genetic background: wild type).
On to GEDPYADLFRDF [TPK1 C-terminal 12 aa], for which the protein stability index was found to be 0.731 ± 0.0078 under setting [1] and 0.6846 ± 0.0053 (genetic background: wild type).
For GEGGHFVIKKIS [DIT1 C-terminal 12 aa], the protein stability index reads like this: under setting [1], 0.6854 ± 0.0056; (genetic background: wild type) 0.20324 ± 5.1e-05.
For GETIRVNYGSTQ [YJR154W C-terminal 12 aa] the same measures were 0.685 ± 0.0089 and 0.689 ± 0.039.
For GEVVKTIIFGPE [SOR1 C-terminal 12 aa] the same measures were 0.7 ± 0.017 and 0.696 ± 0.029.
On to GEYYNLIVPSLD [YGK3 C-terminal 12 aa], for which the protein stability index is 0.7209 ± 0.0012 under setting [1] and 0.698 ± 0.014 (genetic background: wild type).
For GFQTGSAKATSA [RPL37B C-terminal 12 aa] the same measures were 0.703 ± 0.02 and 0.697 ± 0.019.
As to GGLDCKSNVFMR [PAC1 C-terminal 12 aa], the protein stability index came out at 0.697 ± 0.013 under setting [1] and 0.723 ± 0.0089 (genetic background: wild type).
In the case of “GGNKQAPGLELG [YMR242W-A C-terminal 12 aa]”, the protein stability index runs as follows: under setting [1], 0.6918 ± 0.0046; (genetic background: wild type) 0.702 ± 0.006.
“GIILRSCWNPRQ [YOL159C-A C-terminal 12 aa]”: the protein stability index under setting [1] stood at 0.721 ± 0.019 and the protein stability index (genetic background: wild type) came out at 0.69 ± 0.0087.
As to GILCSLMEFFTN [TDA6 C-terminal 12 aa], the protein stability index was determined as 0.727 ± 0.053 under setting [1] and 0.712 ± 0.059 (genetic background: wild type).
Regarding GKKLVQEAFRIV [YPL039W C-terminal 12 aa], the protein stability index by setting is: under setting [1], 0.715 ± 0.019; (genetic background: wild type) 0.675 ± 0.035.
Turning to GKRIIGMLHLDS [PUF4 C-terminal 12 aa], the protein stability index came to 0.685 ± 0.037 under setting [1] and 0.699 ± 0.01 (genetic background: wild type).
Consider GKSSKKKNRSRK [SSH4 C-terminal 12 aa], for which the protein stability index runs as follows: under setting [1], 0.726 ± 0.052; (genetic background: wild type) 0.692 ± 0.018.
In the same order, the values of GLEKKKKKQNNQ [NPR1 C-terminal 12 aa] are 0.69 ± 0.015 and 0.662 ± 0.0018.
For GLLFDKKKKARK [NOP19 C-terminal 12 aa] the same measures were 0.687 ± 0.012 and 0.691 ± 0.043.
For GNNNCPLHMDYI [STE5 C-terminal 12 aa], the protein stability index is, setting by setting: under setting [1], 0.7274 ± 0.0071; (genetic background: wild type) 0.723 ± 0.015.
Consider GQTSRTVTPAPN [ITC1 C-terminal 12 aa], for which the protein stability index runs as follows: under setting [1], 0.726 ± 0.026; (genetic background: wild type) 0.6887 ± 0.0059.
Take GRGAISYSDITI [PEP5 C-terminal 12 aa]: the protein stability index came out at 0.707 ± 0.018 under setting [1] and 0.69 ± 0.0077 (genetic background: wild type).
GRLFEGMPGTET [ITT1 C-terminal 12 aa]: the protein stability index is, setting by setting: under setting [1], 0.709 ± 0.0093; (genetic background: wild type) 0.71 ± 0.03.
With GSEIDFTDYLGP [PUT3 C-terminal 12 aa], the protein stability index reads like this: under setting [1], 0.729 ± 0.012; (genetic background: wild type) 0.716 ± 0.017.
As to GSLLLGLISFLL [EGT2 C-terminal 12 aa], the protein stability index under setting [1] was 0.669 ± 0.0091 and the protein stability index (genetic background: wild type) was found to be 0.6486 ± 0.0054.
For GSSGRLTASPVY [PEX2 C-terminal 12 aa] the same measures were 0.696 ± 0.023 and 0.684 ± 0.022.
In the same order, the values of GTKEYCKMIDFL [YLR108C C-terminal 12 aa] are 0.704 ± 0.014 and 0.688 ± 0.019.
For GTKEYYKGYEYL [MRX16 C-terminal 12 aa] the same measures were 0.6984 ± 0.0016 and 0.6641 ± 0.0017.
For the sequence GTLESFFKRKAK [POL32 C-terminal 12 aa], the protein stability index is, setting by setting: under setting [1], 0.732 ± 0.015; (genetic background: wild type) 0.707 ± 0.03.
In the case of GVETLLDIFMKF [ARG82 C-terminal 12 aa], the protein stability index was found to be 0.74146 ± 0.00055 under setting [1] and 0.706 ± 0.02 (genetic background: wild type).
As for GVFEADGLEAVH [YLR235C C-terminal 12 aa], the protein stability index is, setting by setting: under setting [1], 0.717 ± 0.029; (genetic background: wild type) 0.7688 ± 0.0057.
With GVRRSVRLNNRV [MCM4 C-terminal 12 aa], the protein stability index runs as follows: under setting [1], 0.699 ± 0.019; (genetic background: wild type) 0.681 ± 0.015.
Consider GVSFHVQVTMPQ [TRS33 C-terminal 12 aa], for which the protein stability index runs as follows: under setting [1], 0.711 ± 0.023; (genetic background: wild type) 0.704 ± 0.049.
In the same order, the values of GWEVLSVYSFTR [MTQ2 C-terminal 12 aa] are 0.727 ± 0.042 and 0.737 ± 0.098.
For GWFEEVRDHKRH [SKY1 C-terminal 12 aa] the same measures were 0.731 ± 0.017 and 0.753 ± 0.022.
Regarding GWPLKDGNKKRK [OTO1 C-terminal 12 aa], the protein stability index stood at 0.682 ± 0.025 under setting [1] and 0.706 ± 0.065 (genetic background: wild type).
Regarding GYCFEFTLYNRK [DFR1 C-terminal 12 aa], the protein stability index reads like this: under setting [1], 0.7243 ± 0.0021; (genetic background: wild type) 0.688 ± 0.013.
In turn, “GYKPIILYHVIH [YDL025W-A C-terminal 12 aa]” yielded a protein stability index under setting [1] of 0.691 ± 0.024 and a protein stability index (genetic background: wild type) of 0.598 ± 0.025.
For GYYQRRNKRKRA [UTP20 C-terminal 12 aa] the same measures were 0.749 ± 0.012 and 0.69 ± 0.046.
As for HCGARLTVIPKK [YER137C C-terminal 12 aa], the protein stability index by setting is: under setting [1], 0.693 ± 0.016; (genetic background: wild type) 0.688 ± 0.028.
Sequence HELIKKRWDDRK [NCE101 C-terminal 12 aa] registered a protein stability index under setting [1] of 0.712 ± 0.016 and a protein stability index (genetic background: wild type) of 0.679 ± 0.018.
In the same order, the values of HETFDFRNLKLR [YER121W C-terminal 12 aa] are 0.701 ± 0.043 and 0.698 ± 0.024.
Take HETMVNGSKRRL [DIF1 C-terminal 12 aa]: the protein stability index came out at 0.686 ± 0.014 under setting [1] and 0.639 ± 0.014 (genetic background: wild type).
